Data taken from patent publication US8840891 (RSR, dated 2014).
Where two headings read alike, the source gives them in different places.

Tests used:
[1] = target: wild type human TSHR (human) (UniProt P16473); experiment: cell-based or functional assay
[2] = target: TSHR with Asp151 mutated to Arginine (human) (UniProt P16473); experiment: cell-based or functional assay
[3] = target: TSHR coated onto tubes (human) (UniProt P16473); experiment: TSHR coated tubes, competitor 125I-TSH
[4] = target: wild type human TSHR (human) (UniProt P16473); experiment: cell-based or functional assay; remark: listed apart in the source
[5] = target: TSHR with Lys183 mutated to Alanine (human) (UniProt P16473); experiment: cell-based or functional assay
[6] = target: wild type human TSHR (thyrotropin receptor) expressed on CHO cells (human) (UniProt P16473); experiment: cell-based or functional assay
[7] = target: TSHR with Tyr185 mutated to Alanine expressed on CHO cells (human) (UniProt P16473); experiment: cell-based or functional assay
[8] = target: wild type human TSHR (thyrotropin receptor) expressed on CHO cells (human) (UniProt P16473); experiment: cell-based or functional assay; remark: listed apart in the source
[9] = target: TSHR with Tyr206 mutated to Alanine expressed on CHO cells (human) (UniProt P16473); experiment: cell-based or functional assay
[10] = target: wild type human TSHR (thyrotropin receptor) expressed on CHO cells (human) (UniProt P16473); experiment: cell-based or functional assay; remark: listed apart in the source
[11] = target: TSHR with Phe130 mutated to Alanine expressed on CHO cells (human) (UniProt P16473); experiment: cell-based or functional assay
[12] = target: TSHR with Lys250 mutated to Alanine expressed on CHO cells (human) (UniProt P16473); experiment: cell-based or functional assay
[13] = target: wild type human TSHR (thyrotropin receptor) expressed on CHO cells (human) (UniProt P16473); experiment: cell-based or functional assay; remark: listed apart in the source
[14] = target: wild type human TSHR (thyrotropin receptor) expressed on CHO cells (human) (UniProt P16473); experiment: cell-based or functional assay; remark: listed apart in the source
[15] = target: TSHR with His105 mutated to Alanine expressed on CHO cells (human) (UniProt P16473); experiment: cell-based or functional assay
[16] = target: TSHR coated onto tubes (TSHR coated tubes) (human) (UniProt P16473); experiment: Scatchard analysis, 125I-5C9 IgG and unlabelled 5C9 IgG in TSHR coated tubes

## 5C9 IgG (antibody)
[1]
  cyclic AMP; 5C9 0.01 µg/mL + TSH (fmol/cell well): 12400
  cyclic AMP; 5C9 0.1 µg/mL + TSH (fmol/cell well): 6690
  cyclic AMP; 5C9 1.0 µg/mL + TSH (fmol/cell well): 2750
  cyclic AMP; 5C9 10 µg/mL + TSH (fmol/cell well): 1220
  cyclic AMP; 5C9 100 µg/mL + TSH (fmol/cell well): 1570
  cyclic AMP; 5C9 100 µg/mL only (fmol/cell well): 260
[2]
  Mutated/wild type (%); 5C9 0.01 µg/mL + TSH: 148%
  Mutated/wild type (%); 5C9 0.1 µg/mL + TSH: 158%
  Mutated/wild type (%); 5C9 1.0 µg/mL + TSH: 94%
  Mutated/wild type (%); 5C9 10 µg/mL + TSH: 132%
  Mutated/wild type (%); 5C9 100 µg/mL + TSH: 148%
  Mutated/wild type (%); 5C9 100 µg/mL only: 157%
  cyclic AMP; 5C9 0.01 µg/mL + TSH (fmol/cell well): 18300
  cyclic AMP; 5C9 0.1 µg/mL + TSH (fmol/cell well): 10600
  cyclic AMP; 5C9 1.0 µg/mL + TSH (fmol/cell well): 2590
  cyclic AMP; 5C9 10 µg/mL + TSH (fmol/cell well): 1610
  cyclic AMP; 5C9 100 µg/mL + TSH (fmol/cell well): 2330
  cyclic AMP; 5C9 100 µg/mL only (fmol/cell well): 409
[3]
  % inhib of 125I-TSH binding at 0.01 µg/mL: 2%
  % inhib of 125I-TSH binding at 0.1 µg/mL: 8%
  % inhib of 125I-TSH binding at 1 µg/mL: 21%
  % inhib of 125I-TSH binding at 10 µg/mL: 30%
  % inhib of 125I-TSH binding at 100 µg/mL: 50%
[4]
  cyclic AMP; 5C9 0.01 µg/mL + TSH (fmol/cell well): 18000
  cyclic AMP; 5C9 0.1 µg/mL + TSH (fmol/cell well): 11500
  cyclic AMP; 5C9 1.0 µg/mL + TSH (fmol/cell well): 3490
  cyclic AMP; 5C9 10 µg/mL + TSH (fmol/cell well): 1230
  cyclic AMP; 5C9 100 µg/mL + TSH (fmol/cell well): 1460
  cyclic AMP; 5C9 100 µg/mL only (fmol/cell well): 384
[5]
  Mutated/wild type (%); 5C9 0.01 µg/mL + TSH: 130%
  Mutated/wild type (%); 5C9 0.1 µg/mL + TSH: 211%
  Mutated/wild type (%); 5C9 1.0 µg/mL + TSH: 418%
  Mutated/wild type (%); 5C9 10 µg/mL + TSH: 618%
  Mutated/wild type (%); 5C9 100 µg/mL + TSH: 786%
  Mutated/wild type (%); 5C9 100 µg/mL only: 195%
  cyclic AMP; 5C9 0.01 µg/mL + TSH (fmol/cell well): 23300
  cyclic AMP; 5C9 0.1 µg/mL + TSH (fmol/cell well): 24300
  cyclic AMP; 5C9 1.0 µg/mL + TSH (fmol/cell well): 14600
  cyclic AMP; 5C9 10 µg/mL + TSH (fmol/cell well): 7570
  cyclic AMP; 5C9 100 µg/mL + TSH (fmol/cell well): 11400
  cyclic AMP; 5C9 100 µg/mL only (fmol/cell well): 747

B1: 5C9 IgG (human monoclonal autoantibody to the TSHR) (antibody, from another filing, V domains shown)
VH: EVQLVESGGGLIQPGGSLRLSCAASGFTVSSNYMSWVRQAPGKGLEWVSVTYSGGSTSYADSVKGRFTISRDNSKNTLYLQMNSLRAEDTAVYYCARGGRYCSSISCYARSGCDYWGQGTLVTVSS
VL: AIQMTQSPSSLSASVGDRVTITCRASQSISNYLNWYQQKPGKAPKLLIYAASSLQSGVPSRFSGSGSGTDFTLTISSLQPEDFATYYCQQSYSSPSTTFGQGTKLEIK
[6]
  Cyclic AMP produced; 5C9 0.01 µg/mL + TSH (fmol/cell well): 17300
  Cyclic AMP produced; 5C9 0.1 µg/mL + TSH (fmol/cell well): 6220
  Cyclic AMP produced; 5C9 1.0 µg/mL + TSH (fmol/cell well): 1660
  Cyclic AMP produced; 5C9 10 µg/mL + TSH (fmol/cell well): 481
  Cyclic AMP produced; 5C9 100 µg/mL + TSH (fmol/cell well): 275
  Cyclic AMP produced; 5C9 100 µg/mL only (fmol/cell well): 123
[7]
  Cyclic AMP produced; 5C9 0.01 µg/mL + TSH (fmol/cell well): 9370
  Cyclic AMP produced; 5C9 0.1 µg/mL + TSH (fmol/cell well): 4540
  Cyclic AMP produced; 5C9 1.0 µg/mL + TSH (fmol/cell well): 1200
  Cyclic AMP produced; 5C9 10 µg/mL + TSH (fmol/cell well): 301
  Cyclic AMP produced; 5C9 100 µg/mL only (fmol/cell well): 163
  Mutated/wild type (%); 5C9 0.01 µg/mL + TSH: 54%
  Mutated/wild type (%); 5C9 0.1 µg/mL + TSH: 73%
  Mutated/wild type (%); 5C9 1.0 µg/mL + TSH: 72%
  Mutated/wild type (%); 5C9 10 µg/mL + TSH: 63%
  Mutated/wild type (%); 5C9 100 µg/mL only: 133%
[8]
  Cyclic AMP produced; 5C9 0.01 µg/mL + TSH (fmol/cell well): 16100
  Cyclic AMP produced; 5C9 0.1 µg/mL + TSH (fmol/cell well): 6220
  Cyclic AMP produced; 5C9 1.0 µg/mL + TSH (fmol/cell well): 1310
  Cyclic AMP produced; 5C9 10 µg/mL + TSH (fmol/cell well): 396
  Cyclic AMP produced; 5C9 100 µg/mL + TSH (fmol/cell well): 292
  Cyclic AMP produced; 5C9 100 µg/mL only (fmol/cell well): 444
[9]
  Cyclic AMP produced; 5C9 0.01 µg/mL + TSH (fmol/cell well): 18400
  Cyclic AMP produced; 5C9 0.1 µg/mL + TSH (fmol/cell well): 10800
  Cyclic AMP produced; 5C9 1.0 µg/mL + TSH (fmol/cell well): 3460
  Cyclic AMP produced; 5C9 10 µg/mL + TSH (fmol/cell well): 1560
  Cyclic AMP produced; 5C9 100 µg/mL + TSH (fmol/cell well): 506
  Cyclic AMP produced; 5C9 100 µg/mL only (fmol/cell well): 482
  Mutated/wild type (%); 5C9 0.01 µg/mL + TSH: 114%
  Mutated/wild type (%); 5C9 0.1 µg/mL + TSH: 174%
  Mutated/wild type (%); 5C9 1.0 µg/mL + TSH: 265%
  Mutated/wild type (%); 5C9 10 µg/mL + TSH: 395%
  Mutated/wild type (%); 5C9 100 µg/mL + TSH: 173%
  Mutated/wild type (%); 5C9 100 µg/mL only: 109%
[10]
  Cyclic AMP produced; 5C9 0.01 µg/mL + TSH (fmol/cell well): 15300
  Cyclic AMP produced; 5C9 0.1 µg/mL + TSH (fmol/cell well): 2710
  Cyclic AMP produced; 5C9 1.0 µg/mL + TSH (fmol/cell well): 398
  Cyclic AMP produced; 5C9 10 µg/mL + TSH (fmol/cell well): 151
  Cyclic AMP produced; 5C9 100 µg/mL + TSH (fmol/cell well): 240
  Cyclic AMP produced; 5C9 100 µg/mL only (fmol/cell well): 334
[11]
  Cyclic AMP produced; 5C9 0.01 µg/mL + TSH (fmol/cell well): 17400
  Cyclic AMP produced; 5C9 0.1 µg/mL + TSH (fmol/cell well): 9020
  Cyclic AMP produced; 5C9 1.0 µg/mL + TSH (fmol/cell well): 2240
  Cyclic AMP produced; 5C9 10 µg/mL + TSH (fmol/cell well): 1140
  Cyclic AMP produced; 5C9 100 µg/mL + TSH (fmol/cell well): 603
  Cyclic AMP produced; 5C9 100 µg/mL only (fmol/cell well): 446
  Mutated/wild type (%); 5C9 0.01 µg/mL + TSH: 114%
  Mutated/wild type (%); 5C9 0.1 µg/mL + TSH: 332%
  Mutated/wild type (%); 5C9 1.0 µg/mL + TSH: 562%
  Mutated/wild type (%); 5C9 10 µg/mL + TSH: 754%
  Mutated/wild type (%); 5C9 100 µg/mL + TSH: 251%
  Mutated/wild type (%); 5C9 100 µg/mL only: 134%
[12]
  Cyclic AMP produced; 5C9 0.01 µg/mL + TSH (fmol/cell well): 14500
  Cyclic AMP produced; 5C9 0.1 µg/mL + TSH (fmol/cell well): 8490
  Cyclic AMP produced; 5C9 1.0 µg/mL + TSH (fmol/cell well): 2570
  Cyclic AMP produced; 5C9 10 µg/mL + TSH (fmol/cell well): 862
  Cyclic AMP produced; 5C9 100 µg/mL + TSH (fmol/cell well): 96
  Cyclic AMP produced; 5C9 100 µg/mL only (fmol/cell well): 448
  Mutated/wild type (%); 5C9 0.01 µg/mL + TSH: 95%
  Mutated/wild type (%); 5C9 0.1 µg/mL + TSH: 135%
  Mutated/wild type (%); 5C9 1.0 µg/mL + TSH: 399%
  Mutated/wild type (%); 5C9 10 µg/mL + TSH: 301%
  Mutated/wild type (%); 5C9 100 µg/mL + TSH: 61%
  Mutated/wild type (%); 5C9 100 µg/mL only: 98%
[13]
  Cyclic AMP produced; 5C9 0.01 µg/mL + TSH (fmol/cell well): 15200
  Cyclic AMP produced; 5C9 0.1 µg/mL + TSH (fmol/cell well): 6300
  Cyclic AMP produced; 5C9 1.0 µg/mL + TSH (fmol/cell well): 643
  Cyclic AMP produced; 5C9 10 µg/mL + TSH (fmol/cell well): 286
  Cyclic AMP produced; 5C9 100 µg/mL + TSH (fmol/cell well): 158
  Cyclic AMP produced; 5C9 100 µg/mL only (fmol/cell well): 458
[14]
  Cyclic AMP produced; 5C9 0.01 µg/mL + TSH (fmol/cell well): 16700
  Cyclic AMP produced; 5C9 0.1 µg/mL + TSH (fmol/cell well): 3510
  Cyclic AMP produced; 5C9 1.0 µg/mL + TSH (fmol/cell well): 454
  Cyclic AMP produced; 5C9 10 µg/mL + TSH (fmol/cell well): 289
  Cyclic AMP produced; 5C9 100 µg/mL + TSH (fmol/cell well): 223
  Cyclic AMP produced; 5C9 100 µg/mL only (fmol/cell well): 234
[15]
  Cyclic AMP produced; 5C9 0.01 µg/mL + TSH (fmol/cell well): 24200
  Cyclic AMP produced; 5C9 0.1 µg/mL + TSH (fmol/cell well): 2870
  Cyclic AMP produced; 5C9 1.0 µg/mL + TSH (fmol/cell well): 561
  Cyclic AMP produced; 5C9 10 µg/mL + TSH (fmol/cell well): 434
  Cyclic AMP produced; 5C9 100 µg/mL + TSH (fmol/cell well): 134
  Cyclic AMP produced; 5C9 100 µg/mL only (fmol/cell well): 520
  Mutated/wild type (%); 5C9 0.01 µg/mL + TSH: 145%
  Mutated/wild type (%); 5C9 0.1 µg/mL + TSH: 82%
  Mutated/wild type (%); 5C9 1.0 µg/mL + TSH: 124%
  Mutated/wild type (%); 5C9 10 µg/mL + TSH: 150%
  Mutated/wild type (%); 5C9 100 µg/mL + TSH: 60%
  Mutated/wild type (%); 5C9 100 µg/mL only: 222%
[16]
  Ka: 4e+10 M⁻¹
